According to US20240094221A1, “METHOD FOR PREDICTING THE FERTILITY POTENTIAL OF A FEMALE SUBJECT” (Rigshospitalet, priority 2020, published 2024):
“Also recorded” adds a separate entry of the source.

System: female C57BL/6 mice
Experiment: In vivo mice fertility study with RANKL inducer PTH
Details: vs vehicle
Source text: Twelve (12) female C57BL/6 mice will be allocated to two treatment groups (n=6, n=6) and administered with test article according to table 1. On study day 7, all females of each treatment group+3 male C57BL/6 mice will be allocated to the fertility study. In the fertility study pairs of 2 females will be housed with 1 male for a period of 5 days. During the 5 days all females are observed daily for vaginal plugs at least once per day. Administration of test articles will continue according to table 1 during the fertility study (days 7 to 11). Presence of vaginal plug, apparent pregnancy, and litter size will be recorded for each female. Females and litter will be terminated at the end of the fertility study and the weight of the pups will be determined.
Administration of test article i.p. (group 1) or vehicle i.p. (group 2) will be conducted 2 times a week for a period of 12 days. • Gr.1: 6 mice, i.p. dosing 2 times weekly for 12 days • Gr.2: 6 mice, i.p. dosing 2 times weekly for 12 days
One blood sample will be harvested on study day 12 from all female mice in the study. The blood samples will be drawn by sublingual vein puncture.
Termination: • female mice from the fertility study, will be terminated on nominal study day 12. Twelwe (12) mice will be euthanized after giving birth to litters

B1: PTH: Parathyroidea hormone; well-characterized RANKL inducer (protein, UniProt P01270 32-115, looked up)
Parathyroid hormone: SVSEIQLMHNLGKHLNSMERVEWLRKKLQDVHNFVALGAPLAPRDAGSQRPRKKEDNVLVESHEKSLGEADKADVNVLTKAKSQ
modifications: Parathyroid hormone
notes: Parathyroidea hormone; well-characterized RANKL inducer
B1 was tested. Which pregnancy rate (PTH 5 μg/kg i.p., females paired with WT males, FIG. 14A) did it give?
Its pregnancy rate is “increased; also recorded: doubled”.

What about the number of pups (PTH 5 μg/kg i.p., females paired with WT males, FIG. 14B) of the same molecule?
The number of pups was “increased”.

And the “number of pups per female” value (PTH 5 μg/kg i.p., females paired with WT males, FIG. 14C)?
The value was “increased”.

What about the ovary weight (short-term PTH 5 μg/kg i.p., healthy female mice, p<0.05, data not shown) of the same molecule?
The ovary weight was “small but significant effect”.
